# Substitutions are numbered along the chain they refer to. Names may count otherwise.
# B1: Metallosphaera sedula succinic semialdehyde reductase Ms-SSR variant N43H, SEQ ID NO: 227 (Metallosphaera sedula DSM 5348; N43H) (protein)
# chain: MKAAVLHTYKEPLSIEDVNISQPKAGEVKIKVKATGLCHSDVHVFEGKTPVPPPVVAGHEISGIVEEVGPGVTRVKPGDRVISAFIHPCGKCGNCVAGKENLCETFSQVRLKGVMPDGTSRLSKDGKEIRTFLGGGFAEYAIVGENALTRVPEDMDLEKVAVLGCAGLTGYGAISSSKIEPGDTVAVIGVGGVGLSTIQLLRASGAGRIIAVGTKKWKLDRAMELGATDVVNSKEIDPVKAIKEITGGGPQVVIEAGGNEDTIHMALDSVRIGGKVVLVGLPPATAMIPIRVASIVRGGIEVVGNYGGRPRVDMPKLLELVRQGRYDPSRLVTGRFRLEEINEAVKMLEEGEAIRSLIIP
# B2: Metallosphaera sedula succinic semialdehyde reductase Ms-SSR, wild type, SEQ ID NO: 76 (Metallosphaera sedula DSM 5348) (protein)
# chain: B1 chain with H43N
# B3: Metallosphaera sedula succinic semialdehyde reductase Ms-SSR variant H39R N43H, SEQ ID NO: 81 (Metallosphaera sedula DSM 5348; H39R/N43H) (protein)
# chain: B1 chain with H39R
# B4: Metallosphaera sedula succinic semialdehyde reductase Ms-SSR variant H39R, SEQ ID NO: 225 (Metallosphaera sedula DSM 5348; H39R) (protein)
# chain: B1 chain with H39R, H43N
# Experiments:
# Assay type in all cases: biochemical, Metallosphaera sedula
# Conditions in all cases: other: malate semialdehyde, pH 7.5, 30° C.
# [1] = substrate: O=CC[C@H](O)C(=O)O; experiment: Malate semialdehyde reductase assay, Ms-SSR N43H
# Procedure: (§1) Test for Malate Semialdehyde Reductase Activity: Reaction: (L)-Malate semialdehyde+NAD(P)H→(L)-2,4-dihydroxybutyric acid+NAD(P)
# (§2) The assay mixture contained 200 mM Hepes (pH 7.5), 50 mM KCl, 5 mM MgCl2, 0.24 mM NADH or NADPH, and appropriate amounts of purified enzyme. Reactions were started by adding 10 mM (L)-malate semialdehyde (malate semialdehyde was prepared freshly for each test, see Example 4). Enzymatic assays were carried out at 30° C. in 96-well flat bottomed microtiter plates in a final volume of 250 μL. The reactions were followed by the characteristic absorption of NAD(P)H at 340 nm in a microplate reader (BioRad 680XR).
# (§3) Site-directed mutagenesis was carried out using the oligonucleotide pairs listed in Table 8 and the pMs-SSR plasmid as the template. Point mutations to change the amino acid sequences were introduced by PCR (Phusion 1U, HF buffer 20% (v/v), dNTPs 2.5 mM, direct and reverse primers 1 μM each, template plasmid 200 ng, water). When possible, plasmids created by PCR contained new restriction sites (introduced using silent mutations) in addition to the functional mutation to facilitate identification of mutated clones. The PCR products were digested by DpnI at 37° C. for 1 h to remove template DNA, and transformed into NEB 5-alpha competent E. coli cells (NEB). […]
# [2] = substrate: O=CC[C@H](O)C(=O)O; experiment: Malate semialdehyde reductase assay, Ms-SSR wild type
# Procedure: as §1, §2
# [3] = substrate: O=CC[C@H](O)C(=O)O; experiment: Malate semialdehyde reductase assay, Ms-SSR H39R N43H
# Procedure: as §1, §2, §3
# [4] = substrate: O=CC[C@H](O)C(=O)O; experiment: Malate semialdehyde reductase assay, Ms-SSR H39R
# Procedure: as §1, §2, §3
protein,measurement,setting,value
B1,Km,[1],2500 µM
B2,Km,[2],1100 µM
B3,Km,[3],400 µM
B4,Km,[4],500 µM
